According to the supplement of paper PMC10065799, “High-throughput profiling of sequence recognition by tyrosine kinases and SH2 domains using bacterial peptide display” (eLife, 2023):

Experiments:
[1] = target: Fes (UniProt P07332); test: phosphorylation enrichment, bacterial display (enrichment ratio); higher = better substrate or ligand; peptides without Tyr show the background
[2] = target: Jak2 (UniProt O60674); test: as above
[3] = test system: c-Src; test: as above
[4] = target: Fyn (UniProt P06241); test: as above
Sequence of Fyn (P06241 whole entry, looked up): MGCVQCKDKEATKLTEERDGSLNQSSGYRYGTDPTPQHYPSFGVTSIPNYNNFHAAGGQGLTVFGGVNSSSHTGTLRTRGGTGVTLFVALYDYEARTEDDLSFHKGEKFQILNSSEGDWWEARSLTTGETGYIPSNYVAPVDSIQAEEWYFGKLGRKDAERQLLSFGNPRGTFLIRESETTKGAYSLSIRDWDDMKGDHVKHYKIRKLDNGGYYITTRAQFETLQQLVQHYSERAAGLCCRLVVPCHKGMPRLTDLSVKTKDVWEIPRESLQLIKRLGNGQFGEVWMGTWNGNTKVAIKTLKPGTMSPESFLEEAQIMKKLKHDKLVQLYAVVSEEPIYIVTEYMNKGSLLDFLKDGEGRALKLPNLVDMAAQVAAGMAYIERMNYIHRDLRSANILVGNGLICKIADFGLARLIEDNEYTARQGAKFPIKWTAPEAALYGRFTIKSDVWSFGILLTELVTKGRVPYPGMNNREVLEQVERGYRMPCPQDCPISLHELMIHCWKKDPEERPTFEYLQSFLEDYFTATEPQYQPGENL

[5] = target: FGFR3 (UniProt P22607); test: as above
Sequence of FGFR3 (P22607 whole entry, looked up): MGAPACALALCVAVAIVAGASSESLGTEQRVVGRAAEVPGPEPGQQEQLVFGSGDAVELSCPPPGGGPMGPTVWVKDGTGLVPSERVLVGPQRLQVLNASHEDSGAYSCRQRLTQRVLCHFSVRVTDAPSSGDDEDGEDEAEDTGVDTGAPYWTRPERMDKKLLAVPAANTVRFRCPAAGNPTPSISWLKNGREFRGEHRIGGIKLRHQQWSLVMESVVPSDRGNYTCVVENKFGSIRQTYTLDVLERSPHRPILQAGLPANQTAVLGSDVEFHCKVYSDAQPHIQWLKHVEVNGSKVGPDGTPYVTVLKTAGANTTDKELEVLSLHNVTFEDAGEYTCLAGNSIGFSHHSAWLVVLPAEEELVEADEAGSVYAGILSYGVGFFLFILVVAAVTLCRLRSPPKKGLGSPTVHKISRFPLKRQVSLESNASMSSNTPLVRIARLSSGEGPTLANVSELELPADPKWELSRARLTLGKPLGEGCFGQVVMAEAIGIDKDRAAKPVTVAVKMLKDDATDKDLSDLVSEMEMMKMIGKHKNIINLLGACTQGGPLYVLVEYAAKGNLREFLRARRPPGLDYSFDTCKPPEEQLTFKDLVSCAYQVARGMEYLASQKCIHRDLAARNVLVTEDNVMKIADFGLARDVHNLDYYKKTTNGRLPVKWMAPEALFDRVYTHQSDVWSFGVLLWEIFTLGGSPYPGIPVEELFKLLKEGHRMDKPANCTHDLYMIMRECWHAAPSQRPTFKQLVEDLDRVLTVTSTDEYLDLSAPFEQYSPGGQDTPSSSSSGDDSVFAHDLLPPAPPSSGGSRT

[6] = test system: c-Abl (mouse); test: as above
[7] = target: EPHB1 (UniProt P54762); test: as above
[8] = target: FGFR1 (UniProt P11362); test: as above
Sequence of FGFR1 (P11362 whole entry, looked up): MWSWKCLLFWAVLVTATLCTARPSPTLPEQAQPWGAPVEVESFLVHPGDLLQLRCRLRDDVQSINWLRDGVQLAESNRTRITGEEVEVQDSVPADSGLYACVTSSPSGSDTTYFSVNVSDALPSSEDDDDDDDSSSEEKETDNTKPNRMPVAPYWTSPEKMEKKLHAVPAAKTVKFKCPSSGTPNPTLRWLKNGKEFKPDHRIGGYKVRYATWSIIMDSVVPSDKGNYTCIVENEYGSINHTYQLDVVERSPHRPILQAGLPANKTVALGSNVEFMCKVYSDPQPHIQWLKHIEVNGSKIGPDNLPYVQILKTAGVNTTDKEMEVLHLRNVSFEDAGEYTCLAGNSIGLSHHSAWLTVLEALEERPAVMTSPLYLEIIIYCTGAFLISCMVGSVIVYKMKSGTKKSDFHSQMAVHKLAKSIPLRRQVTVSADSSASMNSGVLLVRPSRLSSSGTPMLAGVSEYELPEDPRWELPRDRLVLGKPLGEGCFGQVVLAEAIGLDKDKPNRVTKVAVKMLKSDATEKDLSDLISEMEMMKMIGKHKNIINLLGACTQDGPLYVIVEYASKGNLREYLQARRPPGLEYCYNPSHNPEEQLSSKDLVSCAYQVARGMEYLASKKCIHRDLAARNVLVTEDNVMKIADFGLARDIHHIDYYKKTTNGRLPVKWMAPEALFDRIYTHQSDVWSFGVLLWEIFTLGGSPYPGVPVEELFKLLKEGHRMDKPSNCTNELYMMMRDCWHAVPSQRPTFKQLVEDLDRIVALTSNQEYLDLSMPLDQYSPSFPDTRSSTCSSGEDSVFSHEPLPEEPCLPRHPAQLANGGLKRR

[9] = target: Hck (UniProt P08631); test: as above
Sequence of Hck (P08631 whole entry, looked up): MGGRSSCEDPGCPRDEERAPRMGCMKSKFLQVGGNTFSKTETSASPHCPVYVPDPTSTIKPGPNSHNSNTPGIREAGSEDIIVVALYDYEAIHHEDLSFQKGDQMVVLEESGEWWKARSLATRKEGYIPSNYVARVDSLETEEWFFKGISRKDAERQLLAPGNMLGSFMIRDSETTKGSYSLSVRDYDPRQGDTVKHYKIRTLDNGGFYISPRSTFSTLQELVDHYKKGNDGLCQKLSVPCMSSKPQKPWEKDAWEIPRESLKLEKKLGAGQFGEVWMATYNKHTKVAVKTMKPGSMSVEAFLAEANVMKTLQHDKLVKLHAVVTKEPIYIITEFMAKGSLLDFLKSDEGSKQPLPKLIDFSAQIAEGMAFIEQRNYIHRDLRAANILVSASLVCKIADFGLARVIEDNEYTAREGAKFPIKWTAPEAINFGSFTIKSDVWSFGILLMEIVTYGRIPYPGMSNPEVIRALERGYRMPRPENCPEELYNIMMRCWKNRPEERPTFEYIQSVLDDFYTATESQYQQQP

[10] = test system: AncSZ; test: as above
[11] = target: EPHB2 (UniProt P29323); test: as above
[12] = target: MERTK (UniProt Q12866); test: as above
Sequence of MERTK (Q12866 whole entry, looked up): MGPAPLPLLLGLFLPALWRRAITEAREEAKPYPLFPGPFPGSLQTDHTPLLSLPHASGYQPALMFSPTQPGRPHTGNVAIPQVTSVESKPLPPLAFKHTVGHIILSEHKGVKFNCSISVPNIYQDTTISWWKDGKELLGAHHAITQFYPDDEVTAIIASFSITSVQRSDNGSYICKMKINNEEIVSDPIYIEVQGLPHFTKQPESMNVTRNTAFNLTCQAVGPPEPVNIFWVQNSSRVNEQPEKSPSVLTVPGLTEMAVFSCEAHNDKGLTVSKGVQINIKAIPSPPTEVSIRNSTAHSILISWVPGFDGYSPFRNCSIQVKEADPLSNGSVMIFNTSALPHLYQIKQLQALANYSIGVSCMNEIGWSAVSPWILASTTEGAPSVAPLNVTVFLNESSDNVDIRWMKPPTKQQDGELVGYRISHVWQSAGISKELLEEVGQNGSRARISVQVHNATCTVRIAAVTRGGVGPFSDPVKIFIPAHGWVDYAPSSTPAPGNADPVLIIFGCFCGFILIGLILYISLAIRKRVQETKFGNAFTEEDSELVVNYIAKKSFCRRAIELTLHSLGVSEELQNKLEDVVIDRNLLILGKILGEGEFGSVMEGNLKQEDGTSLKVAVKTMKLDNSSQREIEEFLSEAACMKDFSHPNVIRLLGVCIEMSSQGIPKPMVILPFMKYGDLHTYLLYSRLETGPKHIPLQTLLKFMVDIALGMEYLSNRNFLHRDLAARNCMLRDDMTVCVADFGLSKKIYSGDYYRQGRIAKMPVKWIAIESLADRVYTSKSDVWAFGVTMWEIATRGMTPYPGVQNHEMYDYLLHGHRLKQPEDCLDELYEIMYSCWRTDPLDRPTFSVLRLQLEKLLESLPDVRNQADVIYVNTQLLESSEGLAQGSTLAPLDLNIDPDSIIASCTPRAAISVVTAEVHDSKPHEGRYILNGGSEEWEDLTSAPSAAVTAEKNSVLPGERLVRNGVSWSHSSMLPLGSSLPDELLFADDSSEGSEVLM

[13] = test system: Fer (mouse); test: as above
[14] = target: c-Src SH2; test: SH2 binding enrichment of the phosphorylated peptide, bacterial display (enrichment ratio); higher = better substrate or ligand; peptides without Tyr show the background
[15] = target: SHP2-C SH2; test: as above
[16] = target: Grb2 SH2 (UniProt P62993); test: as above
Sequence of Grb2 SH2 (P62993 whole entry, looked up, the tested form may be a part): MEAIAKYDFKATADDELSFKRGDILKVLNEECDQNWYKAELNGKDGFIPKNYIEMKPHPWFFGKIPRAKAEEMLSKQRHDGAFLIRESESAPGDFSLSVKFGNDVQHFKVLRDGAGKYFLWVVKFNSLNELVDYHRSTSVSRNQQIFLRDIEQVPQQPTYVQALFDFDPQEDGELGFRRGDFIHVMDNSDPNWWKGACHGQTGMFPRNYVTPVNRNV
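Throughout, for SH2 binding enrichment of the phosphorylated peptide, bacterial display: peptide library displayed on the E. coli surface as eCPX fusions, selected cells deep-sequenced, score is each peptide's frequency after selection divided by its frequency in the input.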
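Throughout, for phosphorylation enrichment, bacterial display: 11-residue human phosphosite peptides and single-mutation variants displayed on the E. coli surface, counted by deep sequencing, each peptide's frequency after selection divided by its frequency in the unselected input library; frequency after pTyr selection over input frequency; kinase dosed for 20-30% of maximal phosphorylation in three min.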

Sequence of Jak2 (O60674 whole entry, looked up): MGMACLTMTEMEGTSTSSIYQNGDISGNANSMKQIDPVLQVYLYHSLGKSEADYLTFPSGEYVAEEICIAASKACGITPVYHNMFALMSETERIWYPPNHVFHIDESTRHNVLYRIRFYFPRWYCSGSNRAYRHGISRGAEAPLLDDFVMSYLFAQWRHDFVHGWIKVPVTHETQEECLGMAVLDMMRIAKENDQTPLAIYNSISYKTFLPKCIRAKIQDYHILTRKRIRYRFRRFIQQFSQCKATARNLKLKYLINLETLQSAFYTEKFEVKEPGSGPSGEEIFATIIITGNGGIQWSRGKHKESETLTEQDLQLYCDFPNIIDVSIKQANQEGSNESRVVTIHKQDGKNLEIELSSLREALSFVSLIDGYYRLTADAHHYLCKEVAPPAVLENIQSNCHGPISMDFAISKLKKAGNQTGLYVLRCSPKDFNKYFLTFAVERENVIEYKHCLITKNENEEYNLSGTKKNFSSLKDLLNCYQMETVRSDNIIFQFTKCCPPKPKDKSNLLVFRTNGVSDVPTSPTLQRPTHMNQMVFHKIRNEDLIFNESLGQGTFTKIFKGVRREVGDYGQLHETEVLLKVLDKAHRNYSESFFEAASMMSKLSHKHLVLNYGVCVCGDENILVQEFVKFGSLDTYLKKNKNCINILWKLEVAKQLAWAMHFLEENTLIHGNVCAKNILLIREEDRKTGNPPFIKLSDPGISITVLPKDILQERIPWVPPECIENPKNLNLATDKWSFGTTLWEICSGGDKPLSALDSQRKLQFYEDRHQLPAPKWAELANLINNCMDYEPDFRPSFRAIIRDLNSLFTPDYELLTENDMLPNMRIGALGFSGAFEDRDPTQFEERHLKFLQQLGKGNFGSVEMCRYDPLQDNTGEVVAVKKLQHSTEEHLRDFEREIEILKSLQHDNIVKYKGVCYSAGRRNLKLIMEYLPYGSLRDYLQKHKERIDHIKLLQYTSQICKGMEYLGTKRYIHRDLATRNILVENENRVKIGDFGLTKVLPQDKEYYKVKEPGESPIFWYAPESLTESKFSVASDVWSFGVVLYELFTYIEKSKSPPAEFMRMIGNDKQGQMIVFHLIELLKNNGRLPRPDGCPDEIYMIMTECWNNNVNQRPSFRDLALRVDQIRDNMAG

Sequence | phosphorylation enrichment [1] | phosphorylation enrichment [2] | phosphorylation enrichment [3] | phosphorylation enrichment [4] | phosphorylation enrichment [5] | phosphorylation enrichment [6] | phosphorylation enrichment [7] | phosphorylation enrichment [8] | phosphorylation enrichment [9] | phosphorylation enrichment [10] | phosphorylation enrichment [11] | phosphorylation enrichment [12] | phosphorylation enrichment [13] | SH2 binding enrichment [14] | SH2 binding enrichment [15] | SH2 binding enrichment [16]
SLDLSYYPTSS [EMD_Y181] | 0.947 | 4.37 | 0.583 | 0.515 | 2.18 | 0.803 | 0.614 | 2.62 | 0.617 | 1.42 | 0.566 | 0.661 | 0.507 | 1.27 | 0.819 | 0.921
NVTGHYISPFH [PPA2_Y59] | 0.542 | 0.492 | 0.362 | 0.448 | 0.422 | 0.92 | 0.423 | 0.459 | 0.486 | 0.552 | 0.493 | 0.563 | 0.325 | 1.14 | 1.11 | 0.852
GYRPVYSEDEQ [CHST6_Y362] | 1.24 | 1.16 | 0.636 | 0.61 | 0.806 | 0.774 | 0.677 | 0.471 | 0.49 | 1.26 | 0.762 | 0.48 | 0.643 | 0.692 | 0.669 | 0.921
EEQKKYFNAMK [SCN5A_Y1494_YF] | 0.866 | 0.672 | 0.479 | 0.489 | 0.656 | 0.616 | 0.459 | 0.421 | 0.459 | 0.882 | 0.474 | 0.428 | 0.341 | 0.421 | 0.847 | 0.901
KDKLPYLFDDP [GPX2_Y125_P126L_YF] | 0.969 | 1.01 | 0.557 | 0.479 | 0.544 | 0.557 | 0.632 | 0.472 | 0.468 | 1.23 | 0.515 | 0.426 | 0.423 | 0.347 | 0.773 | 0.731
TRLAQYDSNSK [BMX_Y216_S212R] | 0.684 | 0.811 | 0.643 | 0.44 | 0.41 | 0.776 | 0.399 | 0.527 | 0.42 | 0.713 | 0.402 | 0.682 | 0.445 | 0.637 | 0.829 | 0.962
MTFQNYRQALF [FAM20C_Y279_G280R] | 1.02 | 0.867 | 0.462 | 0.576 | 0.57 | 0.657 | 0.477 | 0.444 | 0.469 | 0.909 | 0.572 | 0.494 | 0.451 | 0.51 | 0.792 | 1.13
TRNRDYDDIDD [TTYH2_Y424] | 0.917 | 0.734 | 0.448 | 0.451 | 0.665 | 0.621 | 0.497 | 0.562 | 0.527 | 1.02 | 0.563 | 0.507 | 0.438 | 0.593 | 0.766 | 0.721
KRAAIYNPVIF [RHO_Y301_S297R_YF] | 0.841 | 0.738 | 2.22 | 1.91 | 0.541 | 0.741 | 0.432 | 0.492 | 4.07 | 0.725 | 0.55 | 2.69 | 10.4 | 0.854 | 1.19 | 1.01
AGRSGYDNREI [BCL2_Y9_T7S] | 0.635 | 0.52 | 0.394 | 0.426 | 0.49 | 0.551 | 0.386 | 0.366 | 0.441 | 0.574 | 0.409 | 0.366 | 0.32 | 0.494 | 0.757 | 0.731
GSSKIYFLHAD [TLR5_Y108_P112A] | 0.984 | 0.954 | 0.893 | 0.951 | 0.731 | 0.579 | 0.492 | 0.8 | 0.712 | 0.862 | 0.557 | 0.797 | 0.423 | 0.833 | 1.19 | 1.12
FLAVGYHQPHI [IDS_Y225_K227Q] | 0.593 | 0.447 | 0.297 | 0.418 | 0.514 | 0.57 | 0.448 | 0.391 | 0.405 | 0.559 | 0.415 | 0.298 | 0.35 | 1.55 | 1.25 | 0.879
QGIPWYHSQSP [FOXF1_Y331_R330W] | 0.642 | 0.977 | 0.601 | 0.46 | 0.441 | 0.633 | 0.435 | 0.571 | 0.547 | 0.645 | 0.503 | 0.517 | 0.533 | 1.15 | 1.14 | 1.43
EQRRAYLEGTC [HLA-C_Y183_L180R] | 1.01 | 0.917 | 0.45 | 0.482 | 0.675 | 0.822 | 0.578 | 0.472 | 0.524 | 0.832 | 0.528 | 0.47 | 0.498 | 0.456 | 0.756 | 0.867
PLDGEYFTHQI [TP53_Y327_L330H] | 1.43 | 0.99 | 1.61 | 1.99 | 1.55 | 1.5 | 0.932 | 2.17 | 1.65 | 4.62 | 1.15 | 0.656 | 1.08 | 0.429 | 0.717 | 1.12
ALKKPYGVLFK [RPF2_Y59_YF] | 0.722 | 0.73 | 0.777 | 0.562 | 0.518 | 0.712 | 0.469 | 0.404 | 0.632 | 0.765 | 0.502 | 0.528 | 0.403 | 1.76 | 2.29 | 2.15
FPQARYHWLVL [APTX_Y214_K211Q_YF] | 1.22 | 1.28 | 0.522 | 0.459 | 1.48 | 0.858 | 0.568 | 1.92 | 0.543 | 0.913 | 0.597 | 1.24 | 0.539 | 1.13 | 1.47 | 1.25
